# Test results taken from patent US20240398899A1 (priority 2021, published 2024).
# Like-named read-outs stand apart in the source and are kept apart here.
# Assays:
# [1] = test system: SH-SY5Y neuronal cells; assay: Cytoprotective effect against MPP+ iodide induced damage, MTT assay; settings: MPP+ iodide 1 mM
# Description: The Human Neuronal SH-SY5Y Cells were counted using hemocytometer and plated in 96 well plate at a density of 25,000 cells/well and incubated at 37° C. for 24 h. After incubation, cells were treated with recombinant lectin protein having the sequence of SEQ ID NO: 1 at concentrations ranging from 0.001 μg/ml 50 μg/ml for 24 h. After 24 h of treatment, cells were exposed to neurotoxin (MPP+ iodide, 1 mM) for 24 h. Cells treated with MPP+ iodide alone were included as negative control. Untreated cells were included as control. […] After treatment, the cytoprotective effect of SEQ ID NO: 1 on cell viability was assessed by 3-(4,5-dimethythiazol-2-yl)-2,5-diphenyl tetrazolium bromide (MTT) assay: The plate was taken out and 20 μl of 5 mg/ml of MTT 3-(4,5-dimethythiazol-2-yl)-2,5-diphenyl tetrazolium bromide solution was added to all the wells. The SH-SY5Y cells were incubated for 3 h at 37° C. The supernatant was aspirated and 150 μl of DMSO was added to each well to dissolve formazan crystals. The absorbance of each well was read at 540 nm using Synergy HT micro plate reader. The protective effect of the SEQ ID NO: 1 on survival of SH-SY5Y cells against MPP+ iodide induced damage was determined as: The viability of cells was determined as:
# Where, the percentage cytotoxicity corresponding to each treatment was calculated as follows:
# [formula] • X=Absorbance of cells treated with MPP+ iodide/recombinant lectin having SEQ ID NO: 1+MPP+Iodide • R=Absorbance of Control cells (Untreated) • Percentage protection was calculated as:
# [(Absorbance of SEQ ID NO:1+MPP+Iodide)−(Absorbance of MPP+Iodide)/(Absorbance of Untreated)−(Absorbance of MPP+Iodide alone)]*100
# [2] = test system: MPO; assay: Alzheimer's biomarker multiplex analysis, scopolamine-damaged SH-SY5Y; format: cell-based, human; settings: Scopolamine (4 mM)
# Description: (§1) After overnight incubation as in the previous examples, cells were treated with recombinant lectin protein having SEQ ID NO: 1 at different concentrations ranging from 0.001 μg/ml-1 μg/ml for 24 h for Parkinson disease and 0.01 μg/ml-25 μg/ml for 24 h for Alzheimer's disease. • Parkinson Disease: After 24 h of pre-treatment with recombinant lectin protein having SEQ ID NO: 1, cells were exposed (MPP+) for another 24 h. Cells treated with MPP+Iodide were included as Control. […] The cells treated with Galantamine were included as positive Control.
# (§2) The levels of markers were determined by multiplex analysis as: Cell culture supernatants were diluted (1:2) with Calibrator Diluent. 50 μl of standard or sample was added per well. 50 μl of the microparticle cocktail was added to each well of the microplate and covered with a foil plate sealer. The plate was incubated for 2 hours at room temperature on a horizontal orbital microplate shaker. The plate was washed using a magnetic device designed to accommodate a microplate. Washing was done by applying the magnet to the bottom of the microplate, allowing 1 minute before removing the liquid, filling each well with wash buffer (100 μl) and allowing 1 minute before removing the liquid again. 50 μl of diluted Biotin-Antibody Cocktail was added to each well. Covered the plate with a foil plate sealer and incubated for 1 hour at room temperature on the shaker. Repeated the wash step. 50 μl of diluted Streptavidin-PE was added to each well. The plate was securely covered with a foil plate sealer and incubated for 30 minutes at room temperature on the shaker. Repeated the wash step. The microparticles were resuspended by adding 100 μl of Wash Buffer to each well. The plate was incubated for 2 minutes on the shaker and read within 90 minutes using Magpix® multiplex machine. Levels of biomarkers for Parkinson's and Alzheimer's disease were estimated using Magpix® multiplex machine.
# (§3) For Alzheimer's disease the percent modulation in each sample was determined as follows: […]
# [3] = test system: RAGE; assay: as above; format: cell-based, human; settings: Scopolamine (4 mM)
# Description: as §1, §2, §3
# [4] = test system: b-NGF; assay: as above; format: cell-based, human; settings: Scopolamine (4 mM)
# Description: as §1, §2, §3
# [5] = test system: Acetylcholinesterase; settings: mice; for brain Acetylcholine esterase Mean: scopolamine 2.5 mg/kg i.p.
# Description: Healthy male Swiss albino mice (n=48) were selected and randomized based on body weight (n=8 per Group) into 6 groups as mentioned in table no-1. The control group G1 was treated intravenously with vehicle daily till the experiment completion. Group G2 was considered as negative control and treated with vehicle. […] Group G4, G5 &G6 animals were treated with the test item recombinant lectin protein having SEQ ID NO: 1 at the dose of 0.5 mg/kg, 0.25 mg/kg and 0.125 mg/kg, respectively. All the test items were given intravenously (i.v) daily at the dose volume of 5 ml/kg for 14 Days. The body weight was recorded daily throughout the experimental period. […] One hour after the last dose of test items (on Day 14) all the animals were injected with scopolamine hydrobromide at the dose of 2.5 mg/kg, i.p., except the normal control group G1. Passive avoidance test was conducted 30 min after scopolamine injection.
# After passive avoidance test screening models of memory, the animals were sacrificed humanely. The whole brain was carefully removed from the skull and weighed. Brain was dissected into two portions
# 10% w/v brain homogenate (100 mg/mL) was prepared by homogenizing it in ice-chilled phosphate buffer. The homogenate was subsequently centrifuged using a refrigerated centrifuge at 3000 rpm for 10 min, and the supernatant was separated and used for the biochemical estimations.
# Following biomarkers was estimated using ELISA kit as per manufacturer's instruction. • Brain NGF (Nerve Growth Factor), CUSABIO, Catalog No. CSB-E04684m • Acetylcholinesterase, CUSABIO, Catalog No. CSB-E17521m • TNF alpha, CUSABIO, Catalog No. CSB-E04741m
molecule,measurement,setting,value
SEQ ID NO: 1: variant of the S. rolfsii lectin amino acid sequence (reported as Rec-2 in WO2010/095143) (protein) TYKITVRVYQTNPDAFFHPVEKTVWKYANGGTWTITDDQHVLTMGGSGTSGTLRFHADNGESFTATFGVHNYKRWCDIVTNLAADETGMVINQQYYSQKNREEARERQLSNYQVKNAKGRNFQIVYTEAEGNDLHANLIIG,Percentage Protection,[1]; 0.001 μg/mL,58.6%
same,Percentage Viability (w.r.t control),[1]; 0.001 μg/mL,85.1%
same,Percentage cytotoxicity,[1]; 0.001 μg/mL,14.9%
same,Percentage Protection,[1]; 0.01 μg/mL,61.8%
same,Percentage Viability (w.r.t control),[1]; 0.01 μg/mL,86.3%
same,Percentage cytotoxicity,[1]; 0.01 μg/mL,13.7%
same,Percentage Protection,[1]; 0.05 μg/mL,68.8%
same,Percentage Viability (w.r.t control),[1]; 0.05 μg/mL,88.8%
same,Percentage cytotoxicity,[1]; 0.05 μg/mL,11.2%
same,Percentage Protection,[1]; 0.1 μg/mL,52.6%
same,Percentage Viability (w.r.t control),[1]; 0.1 μg/mL,83%
same,Percentage cytotoxicity,[1]; 0.1 μg/mL,17%
same,Percentage Protection,[1]; 1 μg/mL,40.2%
same,Percentage Viability (w.r.t control),[1]; 1 μg/mL,78.8%
same,Percentage cytotoxicity,[1]; 1 μg/mL,21.2%
same,Percentage Protection,[1]; 5 μg/mL,49.6%
same,Percentage Viability (w.r.t control),[1]; 5 μg/mL,82.1%
same,Percentage cytotoxicity,[1]; 5 μg/mL,17.9%
same,Percentage Protection,[1]; 10 μg/mL,85.6%
same,Percentage Viability (w.r.t control),[1]; 10 μg/mL,94.9%
same,Percentage cytotoxicity,[1]; 10 μg/mL,5.1%
same,Percentage Protection,[1]; 25 μg/mL,78.6%
same,Percentage Viability (w.r.t control),[1]; 25 μg/mL,92.4%
same,Percentage cytotoxicity,[1]; 25 μg/mL,7.6%
same,Percentage Protection,[1]; 50 μg/mL,62.1%
same,Percentage Viability (w.r.t control),[1]; 50 μg/mL,86.6%
same,Percentage cytotoxicity,[1]; 50 μg/mL,13.4%
same,% Change of Biomarkers markers (wrt Control) MPO,[2]; 0.01 μg/mL,1.7%
same,% Change of Biomarkers markers (wrt Control) MPO,[2]; 0.1 μg/mL,−64%
same,% Change of Biomarkers markers (wrt Control) MPO,[2]; 1 μg/mL,−45.9%
same,% Change of Biomarkers markers (wrt Control) MPO,[2]; 10 μg/mL,0%
same,% Change of Biomarkers markers (wrt Control) MPO,[2]; 25 μg/mL,0%
same,% Change of Biomarkers markers (wrt Control) RAGE,[3]; 0.01 μg/mL,−19.3%
same,% Change of Biomarkers markers (wrt Control) RAGE,[3]; 0.1 μg/mL,0%
same,% Change of Biomarkers markers (wrt Control) RAGE,[3]; 1 μg/mL,−19.3%
same,% Change of Biomarkers markers (wrt Control) RAGE,[3]; 10 μg/mL,16.3%
same,% Change of Biomarkers markers (wrt Control) RAGE,[3]; 25 μg/mL,−3%
same,% Change of Biomarkers markers (wrt Control) b-NGF,[4]; 0.01 μg/mL,0%
same,% Change of Biomarkers markers (wrt Control) b-NGF,[4]; 0.1 μg/mL,0%
same,% Change of Biomarkers markers (wrt Control) b-NGF,[4]; 1 μg/mL,−9%
same,% Change of Biomarkers markers (wrt Control) b-NGF,[4]; 10 μg/mL,41.1%
same,% Change of Biomarkers markers (wrt Control) b-NGF,[4]; 25 μg/mL,88.9%
same,effect on scopolamine-increased AChE activity in the brain,[5]; 0.5 mg/kg pretreatment,significantly (p<0.001) attenuated
same,brain Acetylcholine esterase Mean,[5]; G4: 0.5 mg/kg i.v. qdx14,4.47 mU/ml
same,brain Acetylcholine esterase Mean,[5]; G5: 0.25 mg/kg i.v. qdx14,6.27 mU/ml
same,brain Acetylcholine esterase Mean,[5]; G6: 0.125 mg/kg i.v. qdx14,6.59 mU/ml
